For the series the following is noted: Bacillus subtilis (strain 168); pH 7; Thermal; CD; Potassium phosphate 10 mM; reversible: yes; whole UniProt chain shown.

Data on one protein can be found in FireProtDB (doi:10.1016/s0022-2836(02)00630-7).

B1: Phosphocarrier protein HPr wild type, P08877 (protein)
chain: MAQKTFKVTADSGIHARPATVLVQTASKYDADVNLEYNGKTVNLKSIMGVMSLGIAKGAEITISASGADENDALNALEETMKSEGLGE
A word on the Tm: it is the temperature at the midpoint of the melting transition. For the protein B1, the Tm was determined as 72.6 °C and the “unfolding enthalpy (van 't Hoff)” value was found to be 74.9 kcal/mol.
